Measured values published in patent US20240392004A1 (IMMUNOWAKE, published 2024).
Changes are numbered by the printed parent chain. Names and notes keep the numbering of the source.

B1: IL-2(L18R/Q22E/R38D/K43E/E61R)/IL-12(E59A/F60A)/PD-L1(mut2)-Fc (Fc fusion)
chain 1: FTVTVPKDLYVVEYGSNMTIECKFPVEKQLDLAALQVYWMMEDKNIIQFVHGEEDLKVQHSSYRQRARLLKDQLSLGNAALQITDVKLQDAGVYTCLIAYKGADYKRITVKVNAPYNKINQRILVVDPVTSEHELTCQAEGYPKAEVIWTSSDHQVLSGKTTTTNSKREEKLFNVTSTLRINTTTNEIFYCTFRRLDPEENHTAELVIPELPLAHPPNERGGGGSGGGIWELKKDVYVVELDWYPDAPGEMVVLTCDTPEEDGITWTLDQSSEVLGSGKTLTIQVKAAGDAGQYTCHKGGEVLSHSLLLLHKKEDGIWSTDILKDQKEPKNKTFLRCEAKNYSGRFTCWWLTTISTDLTFSVKSSRGSSDPQGVTCGAATLSAERVRGDNKEYEYSVECQEDSACPAAEESLPIEVMVDAVHKLKYENYTSSFFIRDIIKPDPPKNLQLKPLKNSRQVEVSWEYPDTWSTPHSYFSLTFCVQVQGKSKREKKDRVFTDKTSATVICRKNASISVRAQDRYYSSSWSEWASVPCSGGGGSGGGSGGGGSRNLPVATPDPGMFPCLHHSQNLLRAVSNMLQKARQTLEFYPCTSEEIDHEDITKDKTSTVEACLPLELTKNESCLNSRETSFITNGSCLASRKTSFMMALCLSSIYEDLKMYQVEFKTMNAKLLMDPKRQIFLDQNMLAVIDELMQALNFNSETVPQKSSLEEPDFYKTKIKLCILLHAFRIRAVTIDRVMSYLNASGGGGSGGGDKTHTCPPCPAPEDEGGPSVFLFPPKPKDTLMISRTPEVTCVVVDVSHEDPEVKFNWYVDGVEVHNAKTKPREEQYNSTYRVVSVLTVLHQDWLNGKEYKCKVSNKALPAPIEKTISKAKGQPREPQVYVYPPSREEMTKNQVSLTCLVKGFYPSDIAVEWESNGQPENNYKTTPPVLDEDGSFALVSKLTVDKSRWQQGNVFSCSVMHEALHNHYTQKSLSLSPGK
chain 2: FTVTVPKDLYVVEYGSNMTIECKFPVEKQLDLAALQVYWMMEDKNIIQFVHGEEDLKVQHSSYRQRARLLKDQLSLGNAALQITDVKLQDAGVYTCLIAYKGADYKRITVKVNAPYNKINQRILVVDPVTSEHELTCQAEGYPKAEVIWTSSDHQVLSGKTTTTNSKREEKLFNVTSTLRINTTTNEIFYCTFRRLDPEENHTAELVIPELPLAHPPNERGGGSGAPTSSSTKKTQLQLEHLRLDLEMILNGINNYKNPKLTDMLTFEFYMPKKATELKHLQCLERELKPLEEVLNLAQSKNFHLRPRDLISNINVIVLELKGSETTFMCEYADETATIVEFLNRWITFCQSIISTLTGGGGSGGGDKTHTCPPCPAPEKKGGPSVFLFPPKPKDTLMISRTPEVTCVVVDVSHEDPEVKFNWYVDGVEVHNAKTKPREEQYNSTYRVVSVLTVLHQDWLNGKEYKCKVSNKALPAPIEKTISKAKGQPREPQVYVLPPSREEMTKNQVSLLCLVKGFYPSDIAVEWESNGQPENRYMTWPPVLDSDGSFFLYSKLTVDKSRWQQGNVFSCSVMHEALHNHYTQKSLSLSPGK
B2: IL-2(R38D/K43E/E61R/Q126T)/IL-12(E59A/F60A)/PD-L1(mut2)-Fc (Fc fusion)
chain 1: B1 chain 1
chain 2: B1 chain 2 with R243L, E247Q, Q351T
B3: PD-L1(mut2)-Fc/IL-12(E59A/F60A) (IL-12 at C' of Fc) (Fc fusion)
chain 1: FTVTVPKDLYVVEYGSNMTIECKFPVEKQLDLAALQVYWMMEDKNIIQFVHGEEDLKVQHSSYRQRARLLKDQLSLGNAALQITDVKLQDAGVYTCLIAYKGADYKRITVKVNAPYNKINQRILVVDPVTSEHELTCQAEGYPKAEVIWTSSDHQVLSGKTTTTNSKREEKLFNVTSTLRINTTTNEIFYCTFRRLDPEENHTAELVIPELPLAHPPNERGGGGSGGGDKTHTCPPCPAPEDEGGPSVFLFPPKPKDTLMISRTPEVTCVVVDVSHEDPEVKFNWYVDGVEVHNAKTKPREEQYNSTYRVVSVLTVLHQDWLNGKEYKCKVSNKALPAPIEKTISKAKGQPREPQVYVYPPSREEMTKNQVSLTCLVKGFYPSDIAVEWESNGQPENNYKTTPPVLDEDGSFALVSKLTVDKSRWQQGNVFSCSVMHEALHNHYTQKSLSLSPGKGGGGSGGGIWELKKDVYVVELDWYPDAPGEMVVLTCDTPEEDGITWTLDQSSEVLGSGKTLTIQVKAAGDAGQYTCHKGGEVLSHSLLLLHKKEDGIWSTDILKDQKEPKNKTFLRCEAKNYSGRFTCWWLTTISTDLTFSVKSSRGSSDPQGVTCGAATLSAERVRGDNKEYEYSVECQEDSACPAAEESLPIEVMVDAVHKLKYENYTSSFFIRDIIKPDPPKNLQLKPLKNSRQVEVSWEYPDTWSTPHSYFSLTFCVQVQGKSKREKKDRVFTDKTSATVICRKNASISVRAQDRYYSSSWSEWASVPCSGGGGSGGGSGGGGSRNLPVATPDPGMFPCLHHSQNLLRAVSNMLQKARQTLEFYPCTSEEIDHEDITKDKTSTVEACLPLELTKNESCLNSRETSFITNGSCLASRKTSFMMALCLSSIYEDLKMYQVEFKTMNAKLLMDPKRQIFLDQNMLAVIDELMQALNFNSETVPQKSSLEEPDFYKTKIKLCILLHAFRIRAVTIDRVMSYLNAS
chain 2: FTVTVPKDLYVVEYGSNMTIECKFPVEKQLDLAALQVYWMMEDKNIIQFVHGEEDLKVQHSSYRQRARLLKDQLSLGNAALQITDVKLQDAGVYTCLIAYKGADYKRITVKVNAPYNKINQRILVVDPVTSEHELTCQAEGYPKAEVIWTSSDHQVLSGKTTTTNSKREEKLFNVTSTLRINTTTNEIFYCTFRRLDPEENHTAELVIPELPLAHPPNERGGGGSGGGDKTHTCPPCPAPEKKGGPSVFLFPPKPKDTLMISRTPEVTCVVVDVSHEDPEVKFNWYVDGVEVHNAKTKPREEQYNSTYRVVSVLTVLHQDWLNGKEYKCKVSNKALPAPIEKTISKAKGQPREPQVYVLPPSREEMTKNQVSLLCLVKGFYPSDIAVEWESNGQPENRYMTWPPVLDSDGSFFLYSKLTVDKSRWQQGNVFSCSVMHEALHNHYTQKSLSLSPGK
B4: IL-2(L18R/Q22E/R38D/K43E/E61R)/PD-L1(mut2)-Fc/IL-12(E59A/F60A) (Fc fusion)
chain 1: B3 chain 1
chain 2: B1 chain 2
B5: IL-2(R38D/K43E/E61R/Q126T)/PD-L1(mut2)-Fc/IL-12(E59A/F60A) (Fc fusion)
chain 1: B3 chain 1
chain 2: B1 chain 2 with R243L, E247Q, Q351T

Target: human PD-1 on cells (HEK-PD-1 reporter cells; activated PBMC) (human, UniProt Q15116 25-288)
Sequence (Q15116 25-288): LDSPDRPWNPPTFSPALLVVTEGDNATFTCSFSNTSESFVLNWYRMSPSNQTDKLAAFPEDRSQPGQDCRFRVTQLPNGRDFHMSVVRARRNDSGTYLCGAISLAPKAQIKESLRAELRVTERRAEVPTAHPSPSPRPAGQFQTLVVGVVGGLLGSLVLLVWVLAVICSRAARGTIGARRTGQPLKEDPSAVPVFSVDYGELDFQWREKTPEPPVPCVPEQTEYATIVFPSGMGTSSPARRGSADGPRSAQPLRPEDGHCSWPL
Test: cell-based or functional assay

| Binder | IL-2 signal transduction, HEK-IL-2-PD-1 [%] | IL-12 signal transduction, HEK-IL-12-PD-1 [%] |
| --- | --- | --- |
| B1 | 35 | 19 |
| B2 | 20 | 25 |
| B3 | < 0.1 | 25 |
| B4 | 32 | 27 |
| B5 | 31 | 30 |

Target: human IL-12 receptor complex (IL-12Rβ1 and IL-12Rβ2) (human, UniProt P42701 24-662; Q99665 24-862)
Sequence (Q99665 24-862, chain 2 of 2, other chains not shown): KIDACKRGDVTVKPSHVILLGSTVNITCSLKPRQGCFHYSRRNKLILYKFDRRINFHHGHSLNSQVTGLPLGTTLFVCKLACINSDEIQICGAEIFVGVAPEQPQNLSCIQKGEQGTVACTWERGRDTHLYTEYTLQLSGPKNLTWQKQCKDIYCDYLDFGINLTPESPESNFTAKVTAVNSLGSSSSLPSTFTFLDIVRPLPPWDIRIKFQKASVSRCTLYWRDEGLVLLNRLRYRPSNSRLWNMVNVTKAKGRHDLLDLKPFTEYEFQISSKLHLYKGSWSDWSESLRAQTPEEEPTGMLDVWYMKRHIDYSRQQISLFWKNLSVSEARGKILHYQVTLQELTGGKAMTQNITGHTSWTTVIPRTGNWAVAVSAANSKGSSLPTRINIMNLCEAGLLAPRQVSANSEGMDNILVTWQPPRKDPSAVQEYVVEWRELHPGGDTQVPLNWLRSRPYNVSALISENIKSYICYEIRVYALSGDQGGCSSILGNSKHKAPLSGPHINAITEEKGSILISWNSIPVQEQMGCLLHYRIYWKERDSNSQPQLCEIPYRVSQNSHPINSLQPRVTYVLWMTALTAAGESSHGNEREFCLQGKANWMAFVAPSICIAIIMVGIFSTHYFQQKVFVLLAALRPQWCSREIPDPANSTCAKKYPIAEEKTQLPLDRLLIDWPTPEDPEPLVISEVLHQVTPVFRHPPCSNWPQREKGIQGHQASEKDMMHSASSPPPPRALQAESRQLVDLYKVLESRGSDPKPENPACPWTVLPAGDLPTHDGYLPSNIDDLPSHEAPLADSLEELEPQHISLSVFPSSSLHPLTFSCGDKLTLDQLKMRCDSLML
Test: cell-based or functional assay

| Binder | IL-12 signal transduction, HEK-IL-12 [%] |
| --- | --- |
| B1 | < 0.2 |
| B2 | < 0.2 |
| B3 | 1 |
| B4 | 2 |
| B5 | 1 |

Target: T1, human IL-2 receptor (IL-2Rα, IL-2Rβ, IL-2Rγ) (human, UniProt P01589 22-272; P14784 27-551; P31785 23-369)
T1 sequence (looked up) 1: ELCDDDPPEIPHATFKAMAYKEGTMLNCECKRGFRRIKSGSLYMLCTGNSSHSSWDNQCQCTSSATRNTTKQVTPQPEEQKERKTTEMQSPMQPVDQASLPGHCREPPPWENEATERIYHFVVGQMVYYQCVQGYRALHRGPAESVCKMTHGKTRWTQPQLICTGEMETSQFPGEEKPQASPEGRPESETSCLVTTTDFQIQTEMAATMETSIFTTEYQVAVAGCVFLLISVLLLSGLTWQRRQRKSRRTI
T1 sequence (looked up) 2: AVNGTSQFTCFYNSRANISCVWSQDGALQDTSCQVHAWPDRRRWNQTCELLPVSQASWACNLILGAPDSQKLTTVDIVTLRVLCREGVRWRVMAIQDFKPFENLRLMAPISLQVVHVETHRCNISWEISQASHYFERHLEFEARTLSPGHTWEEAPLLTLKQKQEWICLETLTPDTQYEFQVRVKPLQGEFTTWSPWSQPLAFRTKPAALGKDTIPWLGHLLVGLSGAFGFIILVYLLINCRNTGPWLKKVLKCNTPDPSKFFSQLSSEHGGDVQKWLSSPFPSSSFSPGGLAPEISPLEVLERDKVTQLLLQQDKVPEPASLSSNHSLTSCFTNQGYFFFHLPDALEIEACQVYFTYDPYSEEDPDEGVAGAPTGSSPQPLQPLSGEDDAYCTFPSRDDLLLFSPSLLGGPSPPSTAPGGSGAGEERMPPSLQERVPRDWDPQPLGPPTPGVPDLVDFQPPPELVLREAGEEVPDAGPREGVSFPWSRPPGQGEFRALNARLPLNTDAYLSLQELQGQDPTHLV
T1 sequence (looked up) 3: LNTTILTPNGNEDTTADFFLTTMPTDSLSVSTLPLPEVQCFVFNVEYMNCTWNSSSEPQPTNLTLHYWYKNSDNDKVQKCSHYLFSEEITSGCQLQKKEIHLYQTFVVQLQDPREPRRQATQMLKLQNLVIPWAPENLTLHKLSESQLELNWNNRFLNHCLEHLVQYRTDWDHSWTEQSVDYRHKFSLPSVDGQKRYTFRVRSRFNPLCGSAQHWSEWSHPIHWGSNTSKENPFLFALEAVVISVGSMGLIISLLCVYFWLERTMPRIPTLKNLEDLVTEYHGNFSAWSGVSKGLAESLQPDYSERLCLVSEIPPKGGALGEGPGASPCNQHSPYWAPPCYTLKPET
Test: cell-based or functional assay

| Binder | IL-2 signal transduction, HEK-IL-2 [%] |
| --- | --- |
| B1 | 4 |
| B2 | 2 |
| B3 | < 0.1 |
| B4 | 3 |
| B5 | 3 |
